In patent US11306156:

Tests used:
[1] = target: D3H44 light chain Q124R_T178R; test: SMCA, LC-MS of 4 co-expressed chains; competing light chain m30
[2] = target: D3H44 light chain Q124R_T178R; test: SMCA: H1, H2, L1, L2 co-expressed in CHO-3E7, protein A, LC-MS; competitor light chain m24
[3] = target: D3H44 light chain Q124R_T178R; test: SMCA, LC-MS; change vs wild-type bispecific; competing light chain m25
[4] = target: D3H44 light chain Q124R_T178R; test: SMCA, LC-MS of 4 co-expressed chains; competing light chain m25
[5] = target: D3H44 light chain Q124R_T178R; test: SMCA: H1, H2, L1, L2 co-expressed in CHO-3E7, protein A, LC-MS; competitor light chain m34
[6] = target: D3H44 light chain Q124R_T178R; test: SMCA, LC-MS; change vs wild-type bispecific; competing light chain m30
[7] = target: D3H44 light chain Q124R_T178R; test: SMCA: LC-MS of protein A purified product after co-expression of H1, H2, L1, L2 in CHO-3E7; competing light chain m51
[8] = target: D3H44 light chain Q124R_T178R; test: SMCA, LC-MS of 4 co-expressed chains; competing light chain m27
[9] = target: D3H44 light chain Q124R_T178R; test: SMCA, LC-MS; change vs wild-type bispecific; competing light chain m27
[10] = target: D3H44 light chain Q124E_V133E; test: SMCA, LC-MS; change vs wild-type bispecific; competing light chain m42
[11] = target: D3H44 light chain Q124E_V133E; test: SMCA: 2 heavy + 2 light chains co-expressed, protein A, LC-MS; competing light chain m45
[12] = target: D3H44 light chain Q124E_V133E; test: SMCA: LC-MS of protein A purified product after co-expression of H1, H2, L1, L2 in CHO-3E7; competing light chain m52
[13] = target: D3H44 light chain Q124E_V133E; test: SMCA, LC-MS of 4 co-expressed chains; competing light chain m26
[14] = target: D3H44 light chain Q124E_V133E; test: SMCA, LC-MS; estimated change vs similar wild type (***); competing light chain m26
[15] = target: D3H44 light chain Q124E_V133E; test: SMCA, LC-MS of 4 co-expressed chains; competing light chain m42
[16] = target: D3H44 light chain Q38R_Q124R_Q160K_T178R; test: SMCA: 2 heavy + 2 light chains co-expressed, protein A, LC-MS; competing light chain m20
[17] = target: D3H44 light chain Q38R_Q124R_Q160K_T178R; test: SMCA: H1, H2, L1, L2 co-expressed in CHO-3E7, protein A purified, LC-MS; competing light chain m18; against wild-type bispecific
[18] = target: D3H44 light chain Q38R_Q124R_Q160K_T178R; test: SMCA: H1, H2, L1, L2 co-expressed in CHO-3E7, protein A purified, LC-MS; competing light chain m16
[19] = target: D3H44 light chain Q38R_Q124R_Q160K_T178R; test: SMCA: H1, H2, L1, L2 co-expressed in CHO-3E7, protein A purified, LC-MS; competing light chain m16; against wild-type bispecific
[20] = target: D3H44 light chain Q38R_Q124R_Q160K_T178R; test: SMCA: H1, H2, L1, L2 co-expressed in CHO-3E7, protein A purified, LC-MS; competing light chain m18
[21] = target: D3H44 light chain Q38E_Q124E_Q160E_T180E; test: SMCA: H1, H2, L1, L2 co-expressed in CHO-3E7, protein A purified, LC-MS; competing light chain m12; *** estimated change against a similar wild-type construct
[22] = target: D3H44 light chain Q38E_Q124E_Q160E_T180E; test: SMCA: H1, H2, L1, L2 co-expressed in CHO-3E7, protein A purified, LC-MS; competing light chain m12
[23] = target: D3H44 light chain Q38E_Q124E_Q160E_T180E; test: SMCA: H1, H2, L1, L2 co-expressed in CHO-3E7, protein A, LC-MS; competitor light chain m47
[24] = target: D3H44 light chain Q124E_Q160E_T180E; test: SMCA: H1, H2, L1, L2 co-expressed in CHO-3E7, protein A, LC-MS; competitor light chain m37
[25] = target: D3H44 light chain Q124E_Q160E_T180E; test: SMCA, LC-MS of 4 co-expressed chains; competing light chain m31
[26] = target: D3H44 light chain Q124E_Q160E_T180E; test: SMCA, LC-MS; change vs wild-type bispecific; competing light chain m31
[27] = target: D3H44 light chain Q124E_L135W_Q160E_T180E; test: SMCA, LC-MS; change vs wild-type bispecific; competing light chain m28
[28] = target: D3H44 light chain Q124E_L135W_Q160E_T180E; test: SMCA, LC-MS of 4 co-expressed chains; competing light chain m28
[29] = target: D3H44 light chain Q124E_Q160E_T180E; test: SMCA, LC-MS of 4 co-expressed chains; competing light chain m48
[30] = target: D3H44 light chain Q124E_Q160E_T180E; test: SMCA, LC-MS; change vs wild-type bispecific; competing light chain m48
[31] = target: D3H44 light chain Q124E_L135W_Q160E_T180E; test: SMCA: H1, H2, L1, L2 co-expressed in CHO-3E7, protein A, LC-MS; competitor light chain m32
D3H44 light chain S131E = test: SMCA: LC-MS of protein A purified product after co-expression of H1, H2, L1, L2 in CHO-3E7; competing light chain m53
[32] = target: D3H44 light chain Q124E_Q160E_T178E; test: SMCA, LC-MS; change vs wild-type bispecific; competing light chain m42
[33] = target: D3H44 light chain Q124E_S176L_T180E; test: SMCA: 2 heavy + 2 light chains co-expressed, protein A, LC-MS; competing light chain m16
[34] = target: D3H44 light chain Q124E_S131T_T178Y_T180E; test: SMCA: LC-MS of protein A purified product after co-expression of H1, H2, L1, L2 in CHO-3E7; competing light chain m52
[35] = target: D3H44 light chain Q124E_Q160E_T178E; test: as above
[36] = target: D3H44 light chain Q124E_Q160E_T178E; test: SMCA, LC-MS of 4 co-expressed chains; competing light chain m26
[37] = target: D3H44 light chain Q124E_S176L_T180E; test: as above
[38] = target: D3H44 light chain Q124E_Q160E_T178E; test: SMCA, LC-MS; estimated change vs similar wild type (***); competing light chain m26
[39] = target: D3H44 light chain Q124E_S176L_T180E; test: SMCA, LC-MS; change vs wild-type bispecific; competing light chain m26
[40] = target: D3H44 light chain Q124E_Q160E_T178E; test: SMCA, LC-MS of 4 co-expressed chains; competing light chain m42

**Q.** What does the source list for “D3H44 heavy chain L143E_K145T_Q179E (from UniProt P0DOX5 2-448)”?
**A.** % H1L1 Pairing (over all H1 species) [1]: 100%; % H1L1 Pairing (over all H1 species) [2]: 100%; Change in % H1L1 Pairing (over all H1 species) with respect to wild type [3]: 38.1%; % H1L1 Pairing (over all H1 species) [4]: 100%; % H1L1 Pairing (over all H1 species) [5]: 100%; Change in % H1L1 Pairing (over all H1 species) with respect to wild type [6]: 38.1%

**Q.** With “D3H44 heavy chain L143E_K145T_Q179E_S188L (from UniProt P0DOX5 2-448)” as the substance, how does the % H1L1 Pairing (over all H1 species) [7] read?
**A.** 94.3%

**Q.** What about the % H1L1 Pairing (over all H1 species) [8] of the same substance?
**A.** 94.3%

**Q.** And the Change in % H1L1 Pairing (over all H1 species) with respect to wild type [9]?
**A.** 32.4%

**Q.** With “D3H44 heavy chain L143R (from UniProt P0DOX5 2-448)” as the substance, how does the Change in % H1L1 Pairing (over all H1 species) with respect to wild type [10] read?
**A.** 59.8%

**Q.** What about the % H1L1 Pairing (over all H1 species) [11] of the same substance?
**A.** 100%

**Q.** And the % H1L1 Pairing (over all H1 species) [12]?
**A.** 100%

**Q.** And the % H1L1 Pairing (over all H1 species) [13]?
**A.** 100%

**Q.** And the Change in % H1L1 Pairing (over all H1 species) with respect to wild type [14]?
**A.** 43.3%

**Q.** What about the % H1L1 Pairing (over all H1 species) [15] of the same substance?
**A.** 97.1%

**Q.** How did the % H1L1 Pairing (over all H1 species) [16] turn out when “D3H44 heavy chain Q39E_L143E_K145T_Q179E (from UniProt P0DOX5 2-448)” was run?
**A.** 100%

**Q.** What about the Change in % H1L1 Pairing (over all H1 species) with respect to wild type [17] of the same substance?
**A.** 46%

**Q.** What about the % H1L1 Pairing (over all H1 species) [18] of the same substance?
**A.** 100%

**Q.** And the Change in % H1L1 Pairing (over all H1 species) with respect to wild type [19]?
**A.** 38.1%

**Q.** What about the % H1L1 Pairing (over all H1 species) [20] of the same substance?
**A.** 86.6%

**Q.** With “D3H44 heavy chain Q39R_H172R_Q179K (from UniProt P0DOX5 2-448)” as the substance, how does the Change in % H1L1 Pairing (over all H1 species) with respect to wild type [21] read?
**A.** 43.3%

**Q.** And the % H1L1 Pairing (over all H1 species) [22]?
**A.** 100%

**Q.** What about the % H1L1 Pairing (over all H1 species) [23] of the same substance?
**A.** 100%

**Q.** Which results are given for “D3H44 heavy chain Q179K (from UniProt P0DOX5 2-448)”?
**A.** % H1L1 Pairing (over all H1 species) [24]: 100%; % H1L1 Pairing (over all H1 species) [25]: 100%; Change in % H1L1 Pairing (over all H1 species) with respect to wild type [26]: 52.5%; Change in % H1L1 Pairing (over all H1 species) with respect to wild type [27]: 38.1%; % H1L1 Pairing (over all H1 species) [28]: 100%; % H1L1 Pairing (over all H1 species) [29]: 100%; Change in % H1L1 Pairing (over all H1 species) with respect to wild type [30]: 62.7%; % H1L1 Pairing (over all H1 species) [31]: 100%

**Q.** Which results are given for “D3H44 heavy chain S186K (from UniProt P0DOX5 2-448)”?
**A.** % H1L1 Pairing (over all H1 species) (D3H44 light chain S131E): 100%; Change in % H1L1 Pairing (over all H1 species) with respect to wild type [32]: 60.9%; % H1L1 Pairing (over all H1 species) [33]: 100%; % H1L1 Pairing (over all H1 species) [34]: 100%; % H1L1 Pairing (over all H1 species) [35]: 100%; % H1L1 Pairing (over all H1 species) [36]: 100%; % H1L1 Pairing (over all H1 species) [37]: 100%; Change in % H1L1 Pairing (over all H1 species) with respect to wild type [38]: 43.3%; Change in % H1L1 Pairing (over all H1 species) with respect to wild type [39]: 52.5%; % H1L1 Pairing (over all H1 species) [40]: 98.2%
